Patent US20220242957A1 (MARENGO THERAPEUTICS, published 2022)

Assays:
[1] = target: T1, mouse CCR2 (mouse, UniProt P51683 1-373); experiment: flow cytometry on ExpiCHO cells transiently transfected with mouse CCR2; goat anti-mouse Fc biotin and streptavidin-PE
T1 construct: whole, on cells; also called mCCR2
Experimental: (§1) ExpiCHO cells were transiently transfected with mouse CCR2, mouse CSF1R, or both mouse CCR2 and CSF1R, according to the manufacturer's instructions. In brief, the transfections were performed with ExpiCHO cells at a cell density of 5.6-6.3×10⁶ cells/mL and at least 95% viability. For each transfection, 25 μg of DNA was diluted with 1 mL of OptiPro SFM (Gibco 12309050) and filtered using spin-X centrifuge tube filters (Corning 8160). A solution of 920 µL of OptiPro and 80 μL of expifectamine was added to the filtered DNA, incubated for 1 minute at room temperature, and then added to the cells. On day 1 of the transfection, the cells were enhanced using 150 μL of ExpiCHO enhancer.
(§2) On day 2 of the transfection, the cells were washed with PBS containing 1% BSA (Sigma) and used to set 96-well V-bottom plates (Biotix AP-0350-9CVS) with 100,000 cells/well. UniTI-01 was added to the cells in serial dilutions and incubated for 1 hour at 4° C. The plates were washed twice with PBS containing 1% BSA. […] The plates were read on a CytoFLEX S (Beckman Coulter). Data were calculated as the median fluorescence intensity of the PE-positive population vs. the median fluorescence intensity of the PE-negative population. The data was normalized for the percent of total median fluorescence intensity.

[2] = target: T2, mouse CSF1R (mouse, UniProt P09581 20-977); experiment: flow cytometry on ExpiCHO cells transiently transfected with mouse CSF1R; goat anti-mouse Fc biotin and streptavidin-PE
T2 construct: whole, on cells; also called mCSF1R
T2 sequence (looked up): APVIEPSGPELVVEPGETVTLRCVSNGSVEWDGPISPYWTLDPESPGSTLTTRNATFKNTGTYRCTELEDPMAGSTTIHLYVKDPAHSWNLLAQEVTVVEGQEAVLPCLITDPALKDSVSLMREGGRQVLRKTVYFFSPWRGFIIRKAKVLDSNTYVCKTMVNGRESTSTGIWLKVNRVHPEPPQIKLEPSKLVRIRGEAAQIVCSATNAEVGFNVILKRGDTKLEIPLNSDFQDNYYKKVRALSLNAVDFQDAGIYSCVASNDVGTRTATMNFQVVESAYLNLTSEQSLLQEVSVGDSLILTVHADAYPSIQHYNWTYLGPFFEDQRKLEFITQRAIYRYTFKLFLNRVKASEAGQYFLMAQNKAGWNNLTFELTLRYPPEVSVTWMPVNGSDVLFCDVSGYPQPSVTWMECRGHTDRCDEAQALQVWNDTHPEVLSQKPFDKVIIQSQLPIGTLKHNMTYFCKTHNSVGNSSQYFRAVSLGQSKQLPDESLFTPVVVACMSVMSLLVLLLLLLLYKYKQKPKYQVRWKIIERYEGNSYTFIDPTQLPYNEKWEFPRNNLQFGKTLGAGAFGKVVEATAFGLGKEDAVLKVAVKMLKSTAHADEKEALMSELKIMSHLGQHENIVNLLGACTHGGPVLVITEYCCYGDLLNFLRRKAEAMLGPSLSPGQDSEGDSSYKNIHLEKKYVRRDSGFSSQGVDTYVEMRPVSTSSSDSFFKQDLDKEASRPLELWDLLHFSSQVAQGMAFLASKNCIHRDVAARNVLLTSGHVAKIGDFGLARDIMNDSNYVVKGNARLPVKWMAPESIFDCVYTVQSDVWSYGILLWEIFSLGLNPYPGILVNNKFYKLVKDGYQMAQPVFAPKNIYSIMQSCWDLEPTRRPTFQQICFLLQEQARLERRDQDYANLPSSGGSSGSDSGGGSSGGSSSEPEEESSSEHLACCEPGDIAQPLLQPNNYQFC
Experimental: as §1, §2

[3] = target: T3, mouse CCR2 and mouse CSF1R, both expressed on the same ExpiCHO cells (mouse, UniProt P51683 1-373; P09581 20-977); experiment: flow cytometry on ExpiCHO cells transiently transfected with both mouse CCR2 and mouse CSF1R; goat anti-mouse Fc biotin and streptavidin-PE
T3 construct: whole, on cells; Two separate membrane proteins on one cell, not a complex; also called CCR2 and CSF1R double positive cells; both mCCR2 and mCSF1R
T3 sequence (P51683 whole entry, one chain of several): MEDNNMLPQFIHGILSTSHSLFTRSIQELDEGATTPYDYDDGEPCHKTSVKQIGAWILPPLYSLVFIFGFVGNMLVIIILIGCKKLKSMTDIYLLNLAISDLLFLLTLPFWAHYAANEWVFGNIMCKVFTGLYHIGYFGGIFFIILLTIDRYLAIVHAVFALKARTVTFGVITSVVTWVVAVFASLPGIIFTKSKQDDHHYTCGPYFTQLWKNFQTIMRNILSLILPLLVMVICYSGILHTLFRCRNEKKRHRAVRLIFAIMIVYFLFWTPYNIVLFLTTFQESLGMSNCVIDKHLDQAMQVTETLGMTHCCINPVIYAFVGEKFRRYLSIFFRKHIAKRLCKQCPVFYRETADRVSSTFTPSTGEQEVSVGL
Experimental: as §1, §2

T1 sequence (P51683 whole entry): as the sequence (P51683 whole entry, one chain of several) above

B1: UniTI-01 (multispecific molecule #1, anti-CCR2/anti-CSF1R bispecific antibody) (bispecific antibody)
heavy 1: QVQLQESGPGLVQPSQTLSLTCTVSGFSLTDFSVHWVRQPPGKGLEWMGRIRSEGNTDYNSALKSRLSISRDTSKSQVFLKMNSLQTEDTAIYFCTRGDILGFGYWGQGVMVTVSSAQTTAPSVYPLAPGCGDTTSSTVTLGCLVKGYFPEPVTVTWNSGALSSDVHTFPAVLQSGLYTLTSSVTSSTWPSQTVTCNVAHPASSTKVDKKVERRTIKPCPPCKCPAPNLLGGPSVFIFPPKIKDVLMISLSPIVTCVVVDVSEDDPDVQISWFVNNVEVHTAQTQTHREDYNSTLRVVSALPIQHQDWMSGKEFKCKVNNKDLPAPIERTISKPKGSVRAPQVYVLPPCEEEMTKKQVTLWCMVTDFMPEDIYVEWTNNGKTELNYKNTEPVLDSDGSYFMYSKLRVEKKNWVERNSYSCSVVHEGLHNHHTTKSFSRTPGK
light 1: DIVMTQSPLSVSVTPGESASISCRSSKSLLHFKGITFVYWYLQKPGQSPQLLIFRMSSLASGVPDRFSGSGSETDFTLKISRVEAEDVGTYYCGQLLENPYTFGAGTKLELKRADAAPTVSIFPPSMEQLTSGGATVVCFVNNFYPRDISVKWKIDGSEQRDGVLDSVTDQDSKDSTYSMSSTLSLTKVEYERHNLYTCEVVHKTSSSPVVKSFNRNEC
heavy 2: QVQLQQSGAELVKPGSSVKISCKASGYTFTSNFMHWIKQQPGNGLEWIGWIYPGDGDTEYNQKFNGKATLTADKSSSTAYMQLSSLTSEDSAVYFCAVNYGGYVLDAWGQGASVTVSSAETTAPSVYPLAPGTALKSNSMVTLGCLVKGYFPEPVTVTWNSGALSSGVHTFPAVLQSGLYTLTSSVTVPSSTWSSQAVTCNVAHPASSTKVDKKIVPRECNTIKPCPPCKCPAPNLLGGPSVFIFPPKIKDVLMISLSPIVTCVVVDVSEDDPDVQISWFVNNVEVHTAQTQTHREDYNSTLRVVSALPIQHQDWMSGKEFKCKVNNKDLPAPIERTISKPKGSVRAPQVCVLPPPEEEMTKKQVTLSCAVTDFMPEDIYVEWTNNGKTELNYKNTEPVLDSDGSYFMVSKLRVEKKNWVERNSYSCSVVHEGLHNHHTTKSFSRTPGK
light 2: EIVLTQSPTTMAASPGEKVTITCRASSSTNYMSWYQQKSGASPKPWIYETSKLASGVPDRFSGSGSGTSYSFTISSMETEDAATYYCHQWSSTPLTFGSGTKLEIKRADAAPTVSIFPPSMEQLTSGGATVVCFVNNFYPRDISVKWKIDGSEQRDGVLDSVTDQDSKDSTYSMSSTLSLTKVEYERHNLYTCEVVHKTSSSPVVKSFNRNEC
notes: one arm for each target; also called mUniTI-01
EC50 [1]: 15 nM
EC50 [2]: 1 nM
EC50 [3]: 0.4 nM
